Results on two molecules are retold here after publication PMC6239180.

The target in data set [1] is T1, hPcf11 (CF II subunit);hClp1 (CF II subunit or alone) (human;human, UniProt O94913;Q92989 1-1555;1-425, |). Put plainly: EMSA.
For data set [2], the target named is T1, hPcf11 (CF II subunit);hClp1 (CF II …). The data set is described as follows: UV cross-linking and immunoprecipitation.

T1 sequence (O94913 whole entry, chain 1 of 2): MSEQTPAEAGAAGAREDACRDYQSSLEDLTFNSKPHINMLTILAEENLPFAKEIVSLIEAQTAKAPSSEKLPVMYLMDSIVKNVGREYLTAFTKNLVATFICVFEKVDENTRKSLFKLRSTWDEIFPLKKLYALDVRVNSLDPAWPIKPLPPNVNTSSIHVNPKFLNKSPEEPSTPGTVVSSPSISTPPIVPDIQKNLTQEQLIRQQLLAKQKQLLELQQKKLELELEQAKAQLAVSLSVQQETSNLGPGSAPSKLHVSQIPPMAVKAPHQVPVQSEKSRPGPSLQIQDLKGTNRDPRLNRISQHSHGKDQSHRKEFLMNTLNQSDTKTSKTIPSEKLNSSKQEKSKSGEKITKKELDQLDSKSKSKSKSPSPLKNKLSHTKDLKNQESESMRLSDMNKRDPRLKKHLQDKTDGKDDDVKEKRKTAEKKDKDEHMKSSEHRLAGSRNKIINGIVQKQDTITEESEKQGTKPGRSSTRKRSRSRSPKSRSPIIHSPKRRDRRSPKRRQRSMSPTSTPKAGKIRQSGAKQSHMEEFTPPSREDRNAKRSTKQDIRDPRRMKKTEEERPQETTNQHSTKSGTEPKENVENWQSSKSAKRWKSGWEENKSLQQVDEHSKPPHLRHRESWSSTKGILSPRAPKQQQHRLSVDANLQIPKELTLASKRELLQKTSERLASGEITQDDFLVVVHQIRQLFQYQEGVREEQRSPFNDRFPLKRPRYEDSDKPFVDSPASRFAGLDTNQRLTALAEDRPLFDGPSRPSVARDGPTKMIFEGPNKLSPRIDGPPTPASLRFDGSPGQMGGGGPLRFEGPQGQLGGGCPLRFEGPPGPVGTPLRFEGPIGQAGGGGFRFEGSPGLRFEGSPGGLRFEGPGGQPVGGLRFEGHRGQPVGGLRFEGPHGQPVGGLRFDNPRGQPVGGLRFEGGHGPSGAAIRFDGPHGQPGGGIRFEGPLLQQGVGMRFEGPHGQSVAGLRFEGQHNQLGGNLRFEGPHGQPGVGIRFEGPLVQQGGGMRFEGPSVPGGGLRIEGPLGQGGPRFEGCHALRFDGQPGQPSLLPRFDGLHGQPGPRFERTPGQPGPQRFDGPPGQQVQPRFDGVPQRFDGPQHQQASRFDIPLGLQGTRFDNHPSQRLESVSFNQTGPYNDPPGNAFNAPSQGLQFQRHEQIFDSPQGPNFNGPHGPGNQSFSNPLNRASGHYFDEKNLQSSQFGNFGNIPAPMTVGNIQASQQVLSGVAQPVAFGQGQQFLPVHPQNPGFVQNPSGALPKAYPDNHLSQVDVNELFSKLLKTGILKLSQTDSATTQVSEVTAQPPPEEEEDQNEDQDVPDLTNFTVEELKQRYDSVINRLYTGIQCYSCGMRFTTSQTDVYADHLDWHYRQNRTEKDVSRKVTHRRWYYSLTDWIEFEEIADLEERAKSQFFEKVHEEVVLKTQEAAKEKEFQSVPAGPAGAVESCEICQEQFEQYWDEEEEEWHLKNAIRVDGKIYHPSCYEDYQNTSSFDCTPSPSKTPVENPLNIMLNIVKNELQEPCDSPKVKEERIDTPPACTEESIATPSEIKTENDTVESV
T1 sequence (Q92989 whole entry, chain 2 of 2): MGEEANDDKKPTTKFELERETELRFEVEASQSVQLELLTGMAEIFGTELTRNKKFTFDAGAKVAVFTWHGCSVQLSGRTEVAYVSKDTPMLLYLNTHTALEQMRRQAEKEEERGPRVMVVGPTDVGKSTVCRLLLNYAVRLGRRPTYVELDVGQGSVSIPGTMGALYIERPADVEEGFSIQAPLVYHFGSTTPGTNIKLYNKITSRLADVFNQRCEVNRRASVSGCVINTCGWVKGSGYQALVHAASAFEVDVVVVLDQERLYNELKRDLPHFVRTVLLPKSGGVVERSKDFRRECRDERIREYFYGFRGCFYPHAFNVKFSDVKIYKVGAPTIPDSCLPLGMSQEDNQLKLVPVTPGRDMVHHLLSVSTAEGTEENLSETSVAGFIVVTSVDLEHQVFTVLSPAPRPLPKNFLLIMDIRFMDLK

In the case of GGGGGGGGGGGGGG (ssRNA) [G14], the equilibrium dissociation constant (Kd) in data set [1] was roughly 2 nM.
With UUUUUUUUUUUUUU (ssRNA) [U14], the binding result in data set [2] is given as “binds”.
